Columns and labels:
[1] = molecular target: recombinant HA, subtype H1 (A/New Caledonia/20/99 (H1N1)) (influenza A virus A/New Caledonia/20/99 (H1N1)) (UniProt Q289M7); assay: ELISA, coated HA, IgG 5 µg/ml
[2] = molecular target: recombinant HA, subtype H3 (A/Wyoming/3/2003(H3N2)) (influenza A virus A/Wyoming/3/2003 (H3N2)); assay: ELISA, coated HA, IgG 5 µg/ml
[3] = molecular target: recombinant HA, subtype H5 (A/Vietnam/1203/2004 (H5N1)) (influenza A virus A/Vietnam/1203/2004 (H5N1)) (UniProt Q80A26); assay: ELISA, coated HA, IgG 5 µg/ml
[4] = molecular target: recombinant HA, subtype H7 (A/Netherlands/219/03 (H7N7)) (influenza A virus A/Netherlands/219/03 (H7N7)); assay: ELISA, coated HA, IgG 5 µg/ml
[5] = molecular target: recombinant HA, subtype H9 (A/Hong Kong/1073/99 (H9N2)) (influenza A virus A/Hong Kong/1073/99 (H9N2)); assay: ELISA, coated HA, IgG 5 µg/ml
[6] = molecular target: full-length HA from isolate A/Vietnam/1194/2004 (H5N1TV) on PER.C6 cells (influenza A virus A/Vietnam/1194/2004 (H5N1)) (UniProt Q80A26); assay: flow cytometry, transfected PER.C6 cells
[7] = molecular target: full-length HA from isolate A/Vietnam/1194/2004 (H5N1TV) on PER.C6 cells (influenza A virus A/Vietnam/1194/2004 (H5N1)) (UniProt Q80A26); assay: flow cytometry, transfected PER.C6 cells, separate experiment

Substance | OD 492 nm [1] | OD 492 nm [2] | OD 492 nm [3] | OD 492 nm [4] | OD 492 nm [5] | flow cytometry signal at 0.1 µg/ml [6] | flow cytometry signal at 1 µg/ml [6] | flow cytometry signal at 10 µg/ml [6] | flow cytometry signal at 0.1 µg/ml [7] | flow cytometry signal at 1 µg/ml [7] | flow cytometry signal at 10 µg/ml [7]
CR3014 (antibody) | 0.08 OD 492 nm | 0.07 OD 492 nm | 0.09 OD 492 nm | 0.17 OD 492 nm | 0.16 OD 492 nm | 6.21 | 10 | 13.1 | 10.5 | 7.95 | 9.15
CR6261 (antibody) |  |  |  | 0.31 OD 492 nm |  |  |  |  |  |  | 
